{"source": "the RNAGym collection of RNA variant scans (doi:10.7554/elife.90254)", "parents": {"B1": {"name": "OR4K15 (parent)", "chain": "GUUAACGGUCAUAGGCCAUGGAAACUAGGAGCACCAUUUCGCUGCCAGUGAAGAAAUGAACAAAGAAAAUCUGGGCCAGGCAGGCAUCAAAAGAAAUAGUCUUGCGCUCAACCAGAAAGUCUGUAAUCAUUUUAAGGGUA"}}, "data": [{"variants_of": "B1", "test": "self-cleavage, relative activity (ratio to wild type); higher = more cleavage; in vitro, sequencing; the parent is a self-cleaving ribozyme", "values": [{"variant": "A56U U57C", "self-cleavage": 1.47}, {"variant": "A59G A86U", "self-cleavage": 1.71}, {"variant": "A59G A86C", "self-cleavage": 0.64}, {"variant": "A59G A86G", "self-cleavage": 0.5}, {"variant": "A56G A91G", "self-cleavage": 0.51}, {"variant": "A56G A91U", "self-cleavage": 1.21}, {"variant": "U57A U122C", "self-cleavage": 0.75}, {"variant": "G58U A90G", "self-cleavage": 1.25}, {"variant": "A59U A63G", "self-cleavage": 1.22}, {"variant": "U57C G74U", "self-cleavage": 0.39}, {"variant": "U57C G74A", "self-cleavage": 0.28}, {"variant": "A56U U133C", "self-cleavage": 2.27}, {"variant": "A56G A111U", "self-cleavage": 0}, {"variant": "A56G U108A", "self-cleavage": 0.02}, {"variant": "A59C C113A", "self-cleavage": 0.02}, {"variant": "U57G G137C", "self-cleavage": 1.71}, {"variant": "A55G G138A", "self-cleavage": 1.54}, {"variant": "A59G U132G", "self-cleavage": 1.41}, {"variant": "A59G U132C", "self-cleavage": 0.46}, {"variant": "U57A U124C", "self-cleavage": 0.68}, {"variant": "U57C A69G", "self-cleavage": 0.75}, {"variant": "U57C A69U", "self-cleavage": 1.63}, {"variant": "G58U A67G", "self-cleavage": 0.88}, {"variant": "G58U A67U", "self-cleavage": 2.46}, {"variant": "U57C A66G", "self-cleavage": 0.31}, {"variant": "A55G G106A", "self-cleavage": 0.01}, {"variant": "A59G A126U", "self-cleavage": 1.27}, {"variant": "A55G G74A", "self-cleavage": 0.31}, {"variant": "A56G U131C", "self-cleavage": 1.47}, {"variant": "A56G U131A", "self-cleavage": 0.6}, {"variant": "U57C A82C", "self-cleavage": 0.23}, {"variant": "U57C A82U", "self-cleavage": 0.21}, {"variant": "A56G A140G", "self-cleavage": 1.78}, {"variant": "A55U U103C", "self-cleavage": 0.91}, {"variant": "A59G A135G", "self-cleavage": 0.84}, {"variant": "A59G U100C", "self-cleavage": 2.06}, {"variant": "A59G U100A", "self-cleavage": 0.63}, {"variant": "A59G A90G", "self-cleavage": 0.78}, {"variant": "A55G U120A", "self-cleavage": 1.67}, {"variant": "U57C G106U", "self-cleavage": 0.03}, {"variant": "A59G A64U", "self-cleavage": 0.74}, {"variant": "A59G A64G", "self-cleavage": 1.37}, {"variant": "A56G U122A", "self-cleavage": 0.63}, {"variant": "A59G U87G", "self-cleavage": 0.3}, {"variant": "A59G U87A", "self-cleavage": 1.11}, {"variant": "A59G U87C", "self-cleavage": 1.19}, {"variant": "A59G A92U", "self-cleavage": 1.08}, {"variant": "U57C A96G", "self-cleavage": 1.17}, {"variant": "U57C A125G", "self-cleavage": 0.29}, {"variant": "A59G C71U", "self-cleavage": 0.22}, {"variant": "A56G A96G", "self-cleavage": 1.68}, {"variant": "A55U A118G", "self-cleavage": 1.43}, {"variant": "U57C A90G", "self-cleavage": 0.97}, {"variant": "U57C A90U", "self-cleavage": 1.51}, {"variant": "A56G U87G", "self-cleavage": 0.32}, {"variant": "A56G U87C", "self-cleavage": 0.74}, {"variant": "U57A A125G", "self-cleavage": 0.52}, {"variant": "A56G C88U", "self-cleavage": 1.72}, {"variant": "U57C G137U", "self-cleavage": 2.18}, {"variant": "U57C G137C", "self-cleavage": 0.73}, {"variant": "A59G A116U", "self-cleavage": 0.32}, {"variant": "A59G A116G", "self-cleavage": 0.77}, {"variant": "A55U A90G", "self-cleavage": 1.36}, {"variant": "A56G A118C", "self-cleavage": 0.64}, {"variant": "U57C U131C", "self-cleavage": 0.94}, {"variant": "U57C A89G", "self-cleavage": 0.75}, {"variant": "U57G A135G", "self-cleavage": 1.74}, {"variant": "A56G C113U", "self-cleavage": 0.08}, {"variant": "U57A A98U", "self-cleavage": 1.47}, {"variant": "A56G A82G", "self-cleavage": 0.56}, {"variant": "A56G A82U", "self-cleavage": 0.23}, {"variant": "A56G A82C", "self-cleavage": 0.15}, {"variant": "A56C A68G", "self-cleavage": 1.59}, {"variant": "U57C U108A", "self-cleavage": 0.02}, {"variant": "U57C A117G", "self-cleavage": 0.84}, {"variant": "U57G A129G", "self-cleavage": 1.15}, {"variant": "U57G A117G", "self-cleavage": 2.08}, {"variant": "U57A A110U", "self-cleavage": 1}, {"variant": "U57A A110C", "self-cleavage": 0.17}, {"variant": "A56C A62G", "self-cleavage": 0.6}, {"variant": "A59G A98G", "self-cleavage": 0.67}, {"variant": "A59G C113U", "self-cleavage": 0.03}, {"variant": "A56C A117G", "self-cleavage": 1.17}, {"variant": "U57C A116G", "self-cleavage": 0.33}, {"variant": "U57C A116U", "self-cleavage": 0.33}, {"variant": "U57G A90G", "self-cleavage": 0.88}, {"variant": "U57C C105G", "self-cleavage": 0.01}, {"variant": "A56G A126U", "self-cleavage": 0.95}, {"variant": "A55G U87A", "self-cleavage": 1.33}, {"variant": "A56U A62U", "self-cleavage": 1.15}, {"variant": "A59G U102C", "self-cleavage": 1.5}, {"variant": "A59G U102A", "self-cleavage": 0.81}, {"variant": "A59C U132C", "self-cleavage": 1.64}, {"variant": "U57A A114G", "self-cleavage": 0.38}, {"variant": "U57A A114U", "self-cleavage": 0.03}, {"variant": "U57A A129G", "self-cleavage": 0.9}, {"variant": "U57A U102G", "self-cleavage": 0.16}, {"variant": "A59G C112G", "self-cleavage": 0.03}, {"variant": "A55U G58U", "self-cleavage": 1.98}, {"variant": "U57C A95G", "self-cleavage": 1.76}, {"variant": "U57C A95U", "self-cleavage": 1.28}, {"variant": "A59G A62C", "self-cleavage": 0.43}, {"variant": "A59G C101U", "self-cleavage": 0.26}, {"variant": "A55G G123U", "self-cleavage": 2.01}, {"variant": "A55G G123A", "self-cleavage": 1.61}, {"variant": "A55G U133C", "self-cleavage": 1.83}, {"variant": "U57C A68U", "self-cleavage": 2.04}, {"variant": "U57A U70A", "self-cleavage": 0.62}, {"variant": "U57C A126G", "self-cleavage": 0.4}, {"variant": "A56C A66G", "self-cleavage": 0.72}, {"variant": "A59U A68G", "self-cleavage": 1.43}, {"variant": "A59U A68C", "self-cleavage": 1.35}, {"variant": "A55G C113U", "self-cleavage": 0.03}, {"variant": "A59C U127C", "self-cleavage": 1.18}, {"variant": "U57C U70A", "self-cleavage": 0.68}, {"variant": "G58A A140G", "self-cleavage": 1.85}, {"variant": "U57C A140U", "self-cleavage": 1.78}, {"variant": "G58U U87C", "self-cleavage": 0.38}, {"variant": "A59G A129U", "self-cleavage": 0.86}, {"variant": "A59G A129C", "self-cleavage": 0.55}, {"variant": "A56G A62C", "self-cleavage": 1.26}, {"variant": "A56G A62G", "self-cleavage": 1.92}, {"variant": "U57A A140G", "self-cleavage": 1.3}, {"variant": "U57G U100C", "self-cleavage": 2.26}, {"variant": "A56U A68G", "self-cleavage": 0.34}, {"variant": "A59G U122A", "self-cleavage": 1.38}, {"variant": "A56U A91G", "self-cleavage": 2.02}, {"variant": "A59G G79A", "self-cleavage": 0.28}, {"variant": "A59U A78U", "self-cleavage": 0.31}, {"variant": "A59U A78G", "self-cleavage": 0.27}, {"variant": "G58A A118G", "self-cleavage": 0.52}, {"variant": "A56G A135G", "self-cleavage": 1.61}, {"variant": "A56G A135U", "self-cleavage": 0.62}, {"variant": "A56G A110U", "self-cleavage": 1.05}, {"variant": "A56G U70C", "self-cleavage": 0.95}, {"variant": "A56G U70A", "self-cleavage": 1.49}, {"variant": "A56G A63G", "self-cleavage": 0.85}, {"variant": "G58A U139C", "self-cleavage": 0.57}, {"variant": "A59G A111G", "self-cleavage": 0.02}, {"variant": "A59G A111C", "self-cleavage": 0.03}, {"variant": "A59G G115U", "self-cleavage": 0.13}, {"variant": "A59G A66G", "self-cleavage": 1.15}, {"variant": "A59G A66U", "self-cleavage": 1.75}, {"variant": "U57A G138A", "self-cleavage": 1.33}, {"variant": "A59G U72A", "self-cleavage": 0.05}, {"variant": "A55U U57C", "self-cleavage": 1.76}, {"variant": "G58U G106A", "self-cleavage": 0.01}, {"variant": "U57A A95G", "self-cleavage": 2.11}, {"variant": "A55U A56U", "self-cleavage": 0.55}, {"variant": "A55U A56G", "self-cleavage": 1.38}, {"variant": "A59G A68U", "self-cleavage": 1.91}, {"variant": "A56U A66U", "self-cleavage": 0.42}, {"variant": "A59C", "self-cleavage": 1.66}, {"variant": "A59U", "self-cleavage": 1.14}, {"variant": "A59G", "self-cleavage": 1.06}, {"variant": "U57A A117G", "self-cleavage": 1.69}, {"variant": "A55G C101U", "self-cleavage": 0.38}, {"variant": "A56C A125C", "self-cleavage": 0.7}, {"variant": "A59G A110G", "self-cleavage": 0.17}, {"variant": "A59G A110C", "self-cleavage": 0.44}, {"variant": "A59G A110U", "self-cleavage": 0.97}, {"variant": "G58A U133C", "self-cleavage": 1.94}, {"variant": "A55U A82U", "self-cleavage": 0.28}, {"variant": "A56G U57C", "self-cleavage": 1.27}, {"variant": "A56G U127C", "self-cleavage": 0.96}, {"variant": "U57C A91G", "self-cleavage": 0.84}, {"variant": "A55G G84A", "self-cleavage": 2.46}]}]}
